We go through five molecules from publication PMC9990171 (2023).

Test [1] addresses SARS-CoV-2 S receptor binding domain (RBD) (SARS-CoV-2 (Wuhan-Hu-1), UniProt P0DTC2 329-538). As to the kind of experiment: ELISA.
Test [2] addresses SARS-CoV-2 S N-terminal domain (NTD) (SARS-CoV-2 (Wuhan-Hu-1), UniProt P0DTC2 14-294). As to the kind of experiment: ELISA.

B1: 14D2 bivalent human heavy-chain-only antibody (HCAb) (antibody, V domains shown)
VH: EVQLVETGGGLIQPGGSLRLSCAASGFQVSNVYMSWVRQAPGKGQEWVSVLYSGGNTYYADSVKGRFTISRDNSKNMVYLQMNSLRVEDTAVYYCARGWEGVTGTTGPWGQGTLVTVSS
With B1, the EC50 in test [1] was found to be 3.48 ng/mL.

B2: 10D12 bivalent human heavy-chain-only antibody (HCAb) (antibody, V domains shown)
VH: EVQLVETGGGLIQPGGSLRLSCAVSGFTVSLNYMSWVRQAPGKGLEWVSSIYSGGSTFYADSVKGRFTISRDNSKNTLYLQMNSLRAEDTAVYYCARGLGFGELPPFDFWGQGTLVTVSS
With B2, the EC50 in test [1] is 3.22 ng/mL.

B3: 11C12 bivalent human heavy-chain-only antibody (HCAb) (antibody, V domains shown)
VH: EVQLVESGGGLVQPGGSLRLSCAASGFTFSSSWMYWVRHIPGKGLEWVSRTTSDVASTFYADSVKGRFTVSRDNAKNMLYLQMNSLRAEDTAVYYCTRDFHDLWSGYYNHWGQGTLVTVSS
In the case of B3, the midpoint of the response in test [2], the EC50, lay at 181 ng/mL.

B4: 10H7 bivalent human heavy-chain-only antibody (HCAb) (antibody, V domains shown)
VH: EVQLVESGGGLIQPGGSLRLSCAASGFTVSNNYMAWVRQAPGKGLEWISVIYANGNTYYADSVKGRFTISRDNSKNVLFLQMSGLRAEDTAVYYCSSRYGSGSEELYDIWGQGTMVTVSS
Take B4: the EC50 in test [1] turned out to be 3.09 ng/mL.

B5: 7D1 bivalent human heavy-chain-only antibody (HCAb) (antibody, V domains shown)
VH: EVQLVETGGGLIQPGGSLRLSCAASGFQVSSSYMSWVRQAPGKGLEWVSVIYSGGGTYYADSVKGRFTISRDISKNTLYLQMNNLRAEDTAMYYCARGWTGVTATTGPWGQGTLVTVSS
Molecule B5 gave a concentration for a half-maximal effect (EC50) in test [1] of 4.11 ng/mL.
